Details in all cases: both partners purified
For experiment [1], the target named is T1, horse albumin (Equus caballus, UniProt P35747).
The target in experiment [2] is T2, natural protein of Sus scrofa P08835 (Sus scrofa, UniProt P08835).
T2 construct: also called Sw

Experiment [3] concerns the target T3, cat albumin (Felis catus, UniProt P49064).
In the next experiment the target is T4, human albumin (Homo sapiens, UniProt P02768).
T4 construct: also called HSA
The experiment can be described thus: ELISA; […], pH 7.4); room temperature; […]. Background: In an ELISA, binding on a coated surface is turned into a signal by an enzyme label.

For a further experiment, the target named is bovine albumin (Bos taurus, UniProt P02769). Kind of experiment: ELISA; […], pH 7.4); room temperature; […].
Chain of bovine albumin (P02769 25-607): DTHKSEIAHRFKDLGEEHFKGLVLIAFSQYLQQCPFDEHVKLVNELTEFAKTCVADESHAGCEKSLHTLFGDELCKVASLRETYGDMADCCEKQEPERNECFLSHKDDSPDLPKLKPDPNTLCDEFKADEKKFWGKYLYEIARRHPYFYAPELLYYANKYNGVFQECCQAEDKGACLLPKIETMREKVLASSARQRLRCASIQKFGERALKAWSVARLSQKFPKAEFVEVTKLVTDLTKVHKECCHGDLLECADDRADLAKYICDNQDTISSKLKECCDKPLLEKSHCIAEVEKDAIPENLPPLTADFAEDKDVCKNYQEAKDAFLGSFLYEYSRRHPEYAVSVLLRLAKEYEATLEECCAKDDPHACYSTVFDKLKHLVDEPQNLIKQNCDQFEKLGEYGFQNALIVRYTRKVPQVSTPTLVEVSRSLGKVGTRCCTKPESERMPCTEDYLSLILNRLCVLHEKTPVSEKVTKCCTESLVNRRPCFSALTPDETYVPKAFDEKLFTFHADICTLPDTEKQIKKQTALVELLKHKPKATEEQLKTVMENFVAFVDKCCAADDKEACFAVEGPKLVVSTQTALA
Experiment [4] concerns the target T1, horse albumin. The experiment can be described thus: ELISA; […], pH 7.4); room temperature; […].
The target of experiment [5] is T2, natural protein of Sus scrofa P08835. Kind of experiment: ELISA; […], pH 7.4); room temperature; […].
In another experiment the target is sheep albumin (Ovis aries, UniProt P14639). The experiment can be described thus: ELISA; […], pH 7.4); room temperature; […].
Chain of sheep albumin (P14639 25-607): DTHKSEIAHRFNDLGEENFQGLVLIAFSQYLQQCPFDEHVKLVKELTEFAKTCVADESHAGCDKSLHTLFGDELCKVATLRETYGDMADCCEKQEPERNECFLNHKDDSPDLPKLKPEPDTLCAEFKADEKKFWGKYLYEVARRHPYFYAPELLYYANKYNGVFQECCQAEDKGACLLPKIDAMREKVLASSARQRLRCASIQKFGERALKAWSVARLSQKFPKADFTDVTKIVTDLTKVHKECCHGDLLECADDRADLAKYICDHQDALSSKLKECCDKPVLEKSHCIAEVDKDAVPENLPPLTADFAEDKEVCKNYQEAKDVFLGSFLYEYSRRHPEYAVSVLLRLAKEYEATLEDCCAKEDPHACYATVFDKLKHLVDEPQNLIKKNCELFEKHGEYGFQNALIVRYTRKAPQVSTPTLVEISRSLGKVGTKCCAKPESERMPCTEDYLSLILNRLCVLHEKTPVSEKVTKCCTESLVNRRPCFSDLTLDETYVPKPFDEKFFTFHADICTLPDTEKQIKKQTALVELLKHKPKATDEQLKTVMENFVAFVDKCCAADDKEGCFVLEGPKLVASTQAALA
The target in experiment [6] is T3, cat albumin. The experiment can be described thus: ELISA; […], pH 7.4); room temperature; […].
The next experiment addresses mouse albumin (Mus musculus, UniProt P07724). Kind of experiment: ELISA; […], pH 7.4); room temperature; […].
The next experiment has as its target chicken ovalbumin (Gallus gallus, UniProt P01012). The experiment can be described thus: ELISA; […], pH 7.4); room temperature; […].

The source of these data is article PMC10862077 (Frontiers in Immunology, 2024).

T2 sequence (P08835 25-607, one chain of several): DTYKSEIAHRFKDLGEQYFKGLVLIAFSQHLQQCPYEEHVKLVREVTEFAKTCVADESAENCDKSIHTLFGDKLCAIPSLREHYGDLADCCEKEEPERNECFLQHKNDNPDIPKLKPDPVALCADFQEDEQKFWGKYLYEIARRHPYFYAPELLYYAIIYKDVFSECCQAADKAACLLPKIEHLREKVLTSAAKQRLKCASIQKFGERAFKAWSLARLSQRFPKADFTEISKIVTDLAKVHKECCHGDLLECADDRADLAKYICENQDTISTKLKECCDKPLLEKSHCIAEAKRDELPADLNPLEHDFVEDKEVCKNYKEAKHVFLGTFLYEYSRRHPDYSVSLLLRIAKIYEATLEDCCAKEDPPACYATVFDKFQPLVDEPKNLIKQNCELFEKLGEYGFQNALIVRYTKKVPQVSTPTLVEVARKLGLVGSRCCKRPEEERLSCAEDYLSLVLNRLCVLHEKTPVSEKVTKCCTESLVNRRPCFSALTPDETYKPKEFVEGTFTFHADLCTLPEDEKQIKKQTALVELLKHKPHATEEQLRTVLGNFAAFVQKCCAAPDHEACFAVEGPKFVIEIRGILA
T1 sequence (P35747 25-607): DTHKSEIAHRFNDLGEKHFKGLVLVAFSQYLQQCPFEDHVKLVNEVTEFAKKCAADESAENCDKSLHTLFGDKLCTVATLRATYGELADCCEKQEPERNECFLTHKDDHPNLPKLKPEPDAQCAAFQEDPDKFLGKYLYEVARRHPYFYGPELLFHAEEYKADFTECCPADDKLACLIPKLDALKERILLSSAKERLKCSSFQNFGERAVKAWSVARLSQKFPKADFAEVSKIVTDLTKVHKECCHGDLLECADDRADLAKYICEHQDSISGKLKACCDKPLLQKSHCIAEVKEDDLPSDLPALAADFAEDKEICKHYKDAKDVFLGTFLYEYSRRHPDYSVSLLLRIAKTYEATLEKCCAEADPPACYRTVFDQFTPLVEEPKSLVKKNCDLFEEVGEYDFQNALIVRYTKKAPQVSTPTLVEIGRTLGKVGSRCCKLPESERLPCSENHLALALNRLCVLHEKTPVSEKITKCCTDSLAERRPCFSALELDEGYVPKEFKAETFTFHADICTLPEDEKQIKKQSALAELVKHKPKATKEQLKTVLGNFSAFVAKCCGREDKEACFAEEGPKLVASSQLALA
T3 sequence (P49064 25-608): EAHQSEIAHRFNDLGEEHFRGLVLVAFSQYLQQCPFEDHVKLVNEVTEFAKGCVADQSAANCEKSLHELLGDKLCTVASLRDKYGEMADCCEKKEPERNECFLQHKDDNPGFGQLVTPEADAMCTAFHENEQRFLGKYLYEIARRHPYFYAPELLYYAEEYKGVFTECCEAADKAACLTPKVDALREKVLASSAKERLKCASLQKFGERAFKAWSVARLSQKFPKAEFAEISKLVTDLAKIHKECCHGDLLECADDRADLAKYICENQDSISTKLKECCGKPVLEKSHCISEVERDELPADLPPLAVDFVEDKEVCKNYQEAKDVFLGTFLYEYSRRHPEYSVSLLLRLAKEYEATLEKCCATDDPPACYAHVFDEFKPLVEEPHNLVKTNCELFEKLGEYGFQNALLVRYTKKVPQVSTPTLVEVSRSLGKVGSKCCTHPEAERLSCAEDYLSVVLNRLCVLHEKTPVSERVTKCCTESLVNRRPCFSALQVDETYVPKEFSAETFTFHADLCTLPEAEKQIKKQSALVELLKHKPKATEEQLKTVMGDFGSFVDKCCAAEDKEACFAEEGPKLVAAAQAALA
T4 sequence (P02768 25-609): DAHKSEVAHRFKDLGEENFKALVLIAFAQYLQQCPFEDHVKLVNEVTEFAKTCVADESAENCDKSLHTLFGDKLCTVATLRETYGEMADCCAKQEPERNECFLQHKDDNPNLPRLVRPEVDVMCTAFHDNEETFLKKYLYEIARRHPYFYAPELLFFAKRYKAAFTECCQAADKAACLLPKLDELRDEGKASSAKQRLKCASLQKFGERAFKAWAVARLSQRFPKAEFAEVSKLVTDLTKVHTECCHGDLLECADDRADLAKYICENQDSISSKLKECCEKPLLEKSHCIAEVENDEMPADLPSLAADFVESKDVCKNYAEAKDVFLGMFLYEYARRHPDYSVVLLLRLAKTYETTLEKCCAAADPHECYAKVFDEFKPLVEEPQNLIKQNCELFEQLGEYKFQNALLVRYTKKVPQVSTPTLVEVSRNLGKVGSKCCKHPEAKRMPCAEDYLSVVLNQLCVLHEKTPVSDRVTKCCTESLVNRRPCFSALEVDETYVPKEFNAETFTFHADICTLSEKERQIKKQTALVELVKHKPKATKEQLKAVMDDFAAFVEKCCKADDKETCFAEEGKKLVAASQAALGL
Chain of mouse albumin (P07724 25-608): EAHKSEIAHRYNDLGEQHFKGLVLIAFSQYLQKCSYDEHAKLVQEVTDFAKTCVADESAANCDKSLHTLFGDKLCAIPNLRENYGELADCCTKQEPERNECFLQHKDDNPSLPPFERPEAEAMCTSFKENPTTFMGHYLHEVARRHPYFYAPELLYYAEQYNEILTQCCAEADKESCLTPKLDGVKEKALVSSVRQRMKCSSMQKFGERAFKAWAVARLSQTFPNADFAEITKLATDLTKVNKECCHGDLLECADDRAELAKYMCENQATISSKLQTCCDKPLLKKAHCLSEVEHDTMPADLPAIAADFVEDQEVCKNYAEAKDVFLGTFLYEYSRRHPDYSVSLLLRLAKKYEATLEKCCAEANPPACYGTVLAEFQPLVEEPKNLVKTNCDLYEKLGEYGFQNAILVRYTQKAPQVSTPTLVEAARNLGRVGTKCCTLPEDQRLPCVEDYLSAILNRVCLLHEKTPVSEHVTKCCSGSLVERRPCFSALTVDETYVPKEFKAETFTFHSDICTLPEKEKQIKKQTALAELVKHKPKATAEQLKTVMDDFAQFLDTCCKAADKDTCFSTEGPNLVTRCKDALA
Chain of chicken ovalbumin (P01012 whole entry): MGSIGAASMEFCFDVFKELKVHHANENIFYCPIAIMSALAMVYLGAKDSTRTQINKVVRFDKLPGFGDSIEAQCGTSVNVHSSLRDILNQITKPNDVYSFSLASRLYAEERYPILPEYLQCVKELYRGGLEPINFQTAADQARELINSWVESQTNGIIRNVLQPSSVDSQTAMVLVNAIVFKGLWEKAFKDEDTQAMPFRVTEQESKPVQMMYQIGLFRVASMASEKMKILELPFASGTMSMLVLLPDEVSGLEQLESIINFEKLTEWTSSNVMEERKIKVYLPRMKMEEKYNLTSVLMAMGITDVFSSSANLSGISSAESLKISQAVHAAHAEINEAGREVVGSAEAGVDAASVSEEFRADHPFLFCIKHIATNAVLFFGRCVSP

B1: A12L (VHH)
VHH: QVQLQESGGGLVQAGGSLRLSCAASGRTFSYYPMAWFRQAPGQEREFVAAIIGADTTYYADSLKGRFTISRDNAKNMVYLQMNSLKPEDTAVYYCAARNTYWSDVYYREGQYTNWGQGTQVTVSS
notes: also called sdAb A12
As usually defined, the Kd is the free concentration of one partner at which half of the binding sites on the other are occupied at equilibrium, for simple one-to-one binding. One may read the koff as a measure of how fast the partners let go of each other. A low value points to slow dissociation. For the molecule B1, the figures for the Kd (in the experiment with horse albumin [1]; in [2]; in the experiment with cat albumin [3]) were 13 nM, 189 nM and 31 nM, respectively. Moreover, the koff with horse albumin [1] is 0.00115 s⁻¹; in [2], 0.0249 s⁻¹; with cat albumin [3], 0.00082 s⁻¹.

B2: A6L (VHH)
VHH: QVQLQESGGRLVQAEDSLRLSCAASGRTFVSYDMGWFRQAPGKEREFVAAINWRGYTTDYVDSVKGRFFISRDIAKSTVYLQMNNLKPEDTAVYYCAARQMSGSSRYSPPGRVGYDFWGQGTQVTVSS
notes: also called sdAb A6
In the experiment with horse albumin [1], B2 displayed a Kd of 13 nM and a koff of 0.00966 s⁻¹. In the experiment with cat albumin [3], this molecule displayed a Kd of 1.2 nM and a koff of 0.00087 s⁻¹.

B3: A7L (VHH)
VHH: QVQLQQSGGGLVQAGDSLRLSCAASGRAFNYYTMGWFRQAPGKEREFVAKIYWDGGSTIYADSVKGRFTISIDNAKNTVYLQMNSLKPEDTAVYYCAADPSFYPFRPKYWGQGTQVTVSS
notes: also called sdAb A7
On to B3, for which the binding result in the experiment with human albumin is “no binding (tested: 1 µg/ml sdAb)”; with bovine albumin, “no binding (tested: 1 µg/ml sdAb)”; with horse albumin [4], “binds”; in [5] it was “no binding (tested: 1 µg/ml sdAb)”; with sheep albumin, “no binding (tested: 1 µg/ml sdAb)”; in the experiment with cat albumin [6] it was “no binding (tested: 1 µg/ml sdAb)”. The binding result with mouse albumin and with chicken ovalbumin was “no binding (tested: 1 µg/ml sdAb)” throughout.

B4: A16L (VHH)
VHH: QVQLQESGGGVVQAGGSLRLSCAASGRTVSSSAMGWFRLAPGKEREFVVGISRSGGSIFYADSVKGRFTISRKNAKNTVDLQMNSLKPEDTAVYYCAAGYRPGYGDYGRVFYREDEYDDWGQGTQVTVSS
notes: also called sdAb A16
In the experiment with horse albumin [1], B4 yielded a Kd of 11 nM and an off-rate constant (koff) of 0.00242 s⁻¹.

B5: A2L (VHH)
VHH: QVQLQQSGGGLVQAGGSLRLSCAASGRFFSRQVMGWFRQAPGKDREFVGVISWDNGVTFYSDSVKGRFTMSREIAKKTVHLQMNSLKPEDTAVYYCAAGNALHSRYYSPSKYDYWGPGTQVTVSS
notes: also called sdAb A2
As for B5, in the experiment with horse albumin [4], the binding result is given as “binds”.
